The values below come from patent publication US9872893B2, “Endolysins active against Staphylococcus bacteria, pharmaceutical compositions, and methods relating thereto” (priority 2014, dated 2018).

The test system of series [1] is Staphylococcus aureus, NRS-71. The experiment in a line: plate lysis assay (spectrum of lytic activity). In kind it is cell-based. More on the design: key to strength of lytic zone: strong lytic zone = ++; weak lytic zone = +; no lytic zone = −. To be noted: 6 μg. As to the method: (§1) The PlyGRCS spectrum of lytic activity was performed (Schmelcher M et al. (2012) Chimeric phage lysins act synergistically with lysostaphin to kill mastitis-causing Staphylococcus aureus in murine mammary glands. Appl Environ Microbiol 78(7):2297-305) with minor modifications. Bacterial cells were diluted in sterile PBS to an OD600=1, and 100 μl was spread on each plate. 10 μl spots (600 μg/ml) of PlyGRCS or CHAPGRCS were applied. Plates were incubated overnight at 37° C. Strength of lytic zones was defined qualitatively.

Series [2] concerns Staphylococcus aureus, NRS-14. The series is described as follows: plate lysis assay (spectrum of lytic activity). More on the design: key to strength of lytic zone: strong lytic zone = ++; weak lytic zone = +; no lytic zone = −. In kind it is cell-based. To be noted: 6 μg. As to the method: as §1
Series [3] deals with S. aureus NRS-14 (VISA strain). The experiment in a line: bactericidal analysis (CFU counts, MBC). The conditions noted are these: 1 hour, stationary phase. In kind it is cell-based, Staphylococcus aureus. As to the method:
Sterile-filtered PlyGRCS was 2-fold serially diluted in PBS supplemented with 1 mM CaCl2 and an equal volume of either various concentrations of enzyme or buffer only was added to 10^5 S. aureus NRS-14 in a microtiter plate. Samples were incubated at 37° C. for 1 hour, then serially diluted, plated on TSB agar, and incubated overnight at 37° C. to obtain CFU counts. The MBC (minimum bactericidal concentration) was determined as the minimum concentration of enzyme that killed ≧99.9% of bacteria.
It has been noted that the minimal inhibitory concentration (MIC) assay may not be the most appropriate assay to measure endolysin efficacy due to the speed at which the enzyme acts (Kusuma C M et al. (2005) Comparison of four methods for determining lysostaphin susceptibility of various strains of Staphylococcus aureus. Antimicrobial agents and chemotherapy 49(8):3256-63). Therefore, we employed the minimum bactericidal concentration (MBC) assay, which is the lowest concentration of enzyme that kills ≧99.9% (i.e. 3 logs) of the test inoculum (Jones R et al. (1985) Susceptibility tests: microdilution and macrodilution broth procedures. In: Balows A, Hausler J, Shadomy H (eds) Manual of Clinical Microbiology. American Society for Microbiology, Washington, D.C., pp 972-7).

For series [4], the system named is S. aureus NRS-14 static biofilms. The series is described as follows: biofilm assay (crystal violet staining). In kind it is cell-based, Staphylococcus aureus. The conditions noted are these: 6.25 μg/ml, 1 hour, 1 day biofilms. As to the method:
An overnight culture of S. aureus NRS-14 (1 ml per well) was placed into 24-well CELLBIND plates (Corning) containing 500 μl of TSB per well. After an additional 24 hour incubation at 37° C., media was aspirated and samples were washed with PBS to remove unattached cells. Two-fold serial dilutions of PlyGRCS in triplicate were added in 1 ml BP buffer pH 7 and incubated at 37° C. for one hour. Liquid was aspirated and samples were washed with distilled water before drying. Biofilms were stained with 0.01% crystal violet for 10 min at room temperature. After removing the excess crystal violet, samples were washed with PBS and dried before the addition of 1 ml 10% SDS to extract the crystal violet from the biomass for quantification at OD595.

For series [5], the system named is S. aureus cell walls (purified peptidoglycan). To be noted: 50 μg/ml, one hour, 37° C.
Series [6] relates to stationary phase S. aureus NRS-14. The series is described as follows: kinetic stability (lytic assay after incubation at indicated temperatures). In kind it is cell-based, Staphylococcus aureus. The conditions noted are these: 25 μg/ml. The method, then:
Lytic activity was based on turbidity reduction assay (Nelson D C et al. (2012) Endolysins as antimicrobials. Adv Virus Res 83:299-365). Briefly, bacterial cells were centrifuged (4,000 RPM, 5 minutes, 4° C.), re-suspended in buffer and mixed 1:1 (v/v) with endolysin to a final OD600=1. OD600 readings were taken every 15 seconds for 20 minutes at 37° C. Endolysin activity was equated to the Vmax dictated by the linear portion of the resulting killing curve. Each experiment was performed in triplicate.
To determine dose response, PlyGRCS was serially diluted and each dosage (100 μl) was added in triplicate to a 96-well polystyrene microtiter plate (Nest Biotech Co, Ltd) just before addition of bacterial cells (100 μl) according to the turbidity reduction assay described above. For optimum pH determination, bacterial cells were suspended in 40 mM boric acid/phosphoric acid (BP) buffer, pH 3-11, and were challenged against PlyGRCS. The influence of NaCl on PlyGRCS activity was tested in BP buffer at the experimentally determined pH optimum using the same assay. The effect of divalent cations was determined using the turbidity reduction assay with several modifications. […] Kinetic stability was evaluated (Son B et al. (2012) Characterization of LysB4, an endolysin from the Bacillus cereus-infecting bacteriophage B4. BMC Microbiol 12:33) with minor modifications. […]

Series [7] concerns SA113 ΔtagO cell walls (staphylococcal peptidoglycan). The series is described as follows: cleavage analysis by mass spectrometry. The conditions noted are these: 50 μg/ml, 18 hours, ESI-MS of digest. It is filed as biochemical, Staphylococcus aureus. As to the method: Briefly, SA113 ΔtagO cell walls (Atilano M L et al. (2010) Teichoic acids are temporal and spatial regulators of peptidoglycan cross-linking in Staphylococcus aureus. Proc Natl Acad Sci USA 107(44):18991-6; Weidenmaier C et al. (2004) Role of teichoic acids in Staphylococcus aureus nasal colonization, a major risk factor in nosocomial infections. Nat Med 10(3):243-5) were digested in 25 mM Tris, 200 mM NaCl, pH 7.4 at 37° C. for 18 hours with 50 μg/ml of PlyGRCS, filtered through 5000-MW cutoff Vivaspin 500 units (Sartorius North America Inc., Bohemia, N.Y.), and desalted using C18 Zip Tips (Millipore, Zug, Switzerland). Controls included peptidoglycan digested with the amidase domain of 2638A, a known N-acetylmuramoyl-L-alanine amidase, or undigested peptidoglycan. To further define the PlyGRCS cut site, double digests with PlyGRCS and a truncation construct containing only the CHAP domain of LysK (CHAP-K), a D-alany-glycyl endopeptidase were performed. The samples were eluted from the Zip Tips with 50:50:0.01 (v/v/v) CH3OH:H2O:[…] (pH˜2), and NanoESI-MS analysis was performed on a Q-TOF Ultima API mass spectrometer (Micromass, UK).

B1: PlyGRCS: endolysin of bacteriophage GRCS (ORF15), amino acids 1-250, SEQ ID NO: 5, C-terminal 6× His tag (protein)
chain: MKSQQQAKEWIYKHEGTGVDFDGAYGFQCMDLAVAYVYYITDGKVRMWGNAKDAINNDFKGLATVYENTPSFKPQLGDVAVYTNSQYGHIQCVISGNLDYYTCLEQNWLGGGFDGWEKATIRTHYYDGVTHFIRPKFSASNSNVLETSKVNTFGNWKQNQYGTYYRNENATFTCGFLPIFARVGSPKLSEPNGYWFQPNGYTPYDEVCLSDGLVWIGYNWQGTRYYLPVRQWNGKTGNSYSIGLPWGVFS
modifications: C-terminal 6xHis tag; Synthetically generated polypeptide (PlyGRCS phage (S. aureus))
Turning to B1, the “lytic activity on plates (in words)” value in series [1] (S. aureus NRS-71) and in series [2] (S. aureus NRS-14) was “greatest strength” throughout. Further, the “strength of lytic zone” value in series [1] (S. aureus NRS-71, MRSA) is reported as “++”; in series [2] (S. aureus NRS-14, VISA) it was “++”. Moreover, the “reduction of bacterial counts” value in series [3] (6.25 μg/ml) is given as 2 logs. This molecule also had a log decrease in series [3] (12.5 μg/ml) of 2.5 log. The molecule further yielded a log killing in series [3] (25 μg/ml) of 3 log. Besides, the “decrease in biofilm biomass” value in series [4] is roughly 50%. Moreover, the “free amine release (amidase/endopeptidase activity)” value in series [5] is listed as “free amines were detected”. For the same molecule, the residual lytic activity in series [6] (after 30 minutes at 4° C. to 37° C.) is reported as greater than 90%. For the same molecule, in series [6] (after 30 minutes at ≧40° C.), the “lytic activity after heating (in words)” value was “lytic activity was not observed”. For the same molecule, the “hydrolytic activities (cleavage specificity)” value in series [7] is “both N-acetylmuramoyl-L-alanine amidase and D-alanyl-glycyl endopeptidase hydrolytic activities”.
